Source: the supplement of paper PMC9170038

Columns and labels:
MS2 coat protein [1] = assay: apparent KD of MS2 coat protein, switch ON state; designed switch direction (-1 OFF switch, 1 ON switch): -1; higher = weaker reporter binding; conditions: FMN input: 0 or 200 uM; Eterna round: R93 (includes R88 designs)
Summary of the method: (§1)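 Titrations with SNAP-549-labelled MS2 coat protein ran in twofold steps from 0.7 or 1.5 nM to 3 µM, each step taking 0.8–1.5 h at the start and 10–20 min toward the end. The targets were designed RNA switches transcribed on-chip from Illumina sequencing clusters, held in 100 mM Tris-HCl pH 7.5, 80 mM KCl, 4 mM MgCl2, without or with constant ligand. Apparent KD was taken per design as the median of normalised cluster binding-curve fits.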

MS2 coat protein [2] = assay: apparent KD of MS2 coat protein, switch OFF state (with FMN for OFF switches, without FMN for ON switches); designed switch direction (-1 OFF switch, 1 ON switch): -1; higher = weaker reporter binding; conditions: FMN input: 0 or 200 uM; Eterna round: R93 (includes R88 designs)
Summary of the method: as §1

Sequence | apparent KD of MS2 coat protein (MS2 coat protein [1]) [nM] | apparent KD of MS2 coat protein (MS2 coat protein [2]) [nM]
AGAAACGAAGGAUAUACAUGAGGAUCACCCAUGUAAAGAAAGAGGAGAGCCACAAGAAGUAGAAGGUCGAAGAA [JR_Exc003_Sub007] | 27.4 | 50.7
AAGAAGACAGGAUAUACAUGAGGAUCACCCAUGUAAAAGAAAGAAAAGGGAAAGAAAAGUAGAAGGGUCAAGAA [Menkheperure Thutmose IV] | 39.6 | 36.8
AACAUGUUAGGAUAUCUAAGAAAAGAAAAGAAAGAAAAGAAAGAGAAGGAACAUGAGGAUCACCCAUGUAAGAA [EteRNA is fun!] | 30.1 | 22.1
AAAAAGUGAGGAUAUGUCAAAAGUCACAAAAGUGACAAAAGACAGAAGGCACAUGAGGAUCACCCAUGUGAAAA [Mod of Eli - Late G + early G segment 3] | 26.8 | 38.8
AGUAGAUCAGGAUAUACGUGAAAGGUCAAAGUGUCACUUCUACAUGAGGAUCACCCAUGUAGAAGGGAUCUACA [Ex2 Design 122: Not so Super Stable 9] | 12.9 | 12.4
GAUGAGUGAGGAUAUGUAAAAAAAAGAGAAGAGAAGAGAGAACAGAAGGCACAUGAGGAUCACCCAUGUAGGGA [Default title] | 226 | 322
AAAUUAGCAGGAUAUACUAGGGUCCACCGAACUCUGAAAAGACAUGAGGAUCACCCAUGUAGAAGGGCUUCGAA [Atileso] | 30 | 97.6
GGAAAGCGAGGAUAUACAUGAGGAUCACCCAUGUUAACAAACAAACAAACAAACAAAAGUAGAAGGCGCAAAAU [Exclusion 3 This and That] | 42.6 | 41.1
AAAAGACAUGAGGAUCACCCAUGUGAGGAUAUGCGAAAAAAAAAAAUAAAAAAAAAAAGUAGAAGGCACACCAA [Mat - Exclusion 1 - Eli mod - D56] | 177 | 248
AAAAAACAUGAGGAUCACCCAUGUAAGGAUAUGCUAAAAAACACGGAAAAACGUGAUAGCAGAAGGUACAAAAA [66%, Wbt, 31] | 22.6 | 33.4
AAAAAACAUGAGGAUCACCCAUGUCAGGAUAUCUGGAGAAACGGAAAGAAAAAGAAACGGAGAAGGGACAUAAA [Starryjess mod] | 29.6 | 28.5
AGAAAGUCAGGAUAUGCAGAAAAAAAAACGAAAAAAAAACUGCAGAAGGGACAUGAGGAUCACCCAUGUUAAGA [Mat - Exclusion 4 - Mayanna - D130] | 49 | 49
CUCAAGUAAGGAUAUGCAAGAAAAGAAGAGAAAGAAAAGAAGCAGAAGGUACAUGAGGAUCACCCAUGUAAGAA [EteRNA is fun!] | 37.3 | 35.8
CAGUACUGAGGAUAUACAUGAGGAUCACCCAUGUGAUCAAGCUACGAAAGUAGCAAAAGUAGAAGGCAGUACUG [Ex3: 810] | 277 | 56.7
AAGAAGUCAGGAUAUGCCAGAGAUCACGAAAGUGACUAAGGGCAGAAGGGACAUGAGGAUCACCCAUGUAAAGA [Opal 5] | 63.4 | 62.1
AAAAAGUUAGGAUAUACAUGAGGAUCACCCAUGUACAUAUAUGGAGAAUAUAGUAGUAGUAGAAGGGACAAAAA [EX2 Malc#14] | 21 | 26.9
AAGAACUGAGGAUAUACAAAAGAAAAGAAAAGAAAGAAAGAACAUGAGGAUCACCCAUGUAGAAGGCGGAAGAA [Khahotepre Sobekhotep VI] | 31.5 | 14.7
AACUGACAUGAGGAUCACCCAUGUCAGGAUAUGACAUCGAAAAAAAAAAAAAUCGUUGUCAGAAGGGACAUGGA [Design 74: Sub-opt R] | 20.9 | 32.5
AUAAACUGAGGAUAUACAUGAGGAUCACCCAUGUAAAAAAAGAAAUGAUCCUCAGGAAGUAGAAGGCAGAAUAA [JR_Exc003_Sub017] | 13.2 | 28.3
